Test results reported in patent publication US20160237147A1.

Key:
[1] = target: recombinant human NGF 1-120 (human) (UniProt P01138); test: cell-based or functional assay
[2] = target: recombinant rat beta-NGF (R&D Systems) (rat) (UniProt P25427); test: cell-based or functional assay
Sequence of recombinant rat beta-NGF (R&D Systems) (rat) (P25427 122-241 limits assumed): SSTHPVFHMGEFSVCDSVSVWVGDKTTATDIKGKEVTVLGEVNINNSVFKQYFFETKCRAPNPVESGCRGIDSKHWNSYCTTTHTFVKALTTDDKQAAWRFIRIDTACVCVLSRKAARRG

Sequence of recombinant human NGF 1-120 (human) (P01138 other isoform, or with tags, fused parts or gaps): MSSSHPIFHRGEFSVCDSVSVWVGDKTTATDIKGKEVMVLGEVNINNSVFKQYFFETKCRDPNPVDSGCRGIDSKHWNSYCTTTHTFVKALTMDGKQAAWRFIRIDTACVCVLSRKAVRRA

B1: anti-NGF antibody 14D11 (antibody, V domains shown)
VH: EVQLVQSGAEVKKPGESLKISCKGSGYNFTTYWIGWVRQMPGKGLEWMGIIYPGDSDTKYSPSFQGQVTISADKSISTAYLQWSSLKASDTAMYYCARNYYGSGTYYYYYGMNVWGQGTTVTVSS
VL: DIQMTQSPSSVSASVGDRVTITCRASQGISIWLAWYQHKPGKAPKLLIYAASSLQSGVPSRFSGSGSGTDFTLTISSLQPEDFATYYCQQANSFPWTFGQGTKVEIK
IC50 @ hNGF, NGF neutralization activity as in Example 3 [1]: 0.28 nM
IC50 @ rNGF, NGF neutralization activity as in Example 3 [2]: > 20 nM

B2: anti-NGF antibody 14D10 (antibody, V domains shown)
VH: EVQLVESGGGLVQPGRSLRLSCTASGFTFEDYAMHWVRQAPGKGLEWVSGISWNRGIIGYADSVKGRFTVSRDNAKNSLYLQMNSLRAEDTALYYCAKEGYYGSGRPGYFYYVMDVWGQGTTVTVSS
VL: EIVLTQSPGTLSLSPGERATLSCRASQSVSSGFLAWFQQKPGQAPRLLIYGASSRATAIPDRFSGSGSGTDFTLTISRLEPEDFAVYYCQQYGSSPYTFGQGTKLEIK
IC50 @ hNGF, NGF neutralization activity as in Example 3 [1]: 0.392 nM
IC50 @ rNGF, NGF neutralization activity as in Example 3 [2]: > 13 nM
